Results: US10350158B2, “2′ fluoro-modified RNAs as immunostimulators” (DUKE UNIVERSITY, priority 2013, dated 2019)
Strand notation (5' to 3'): a small letter for the sugar, then the base; units joined by * are phosphorothioate-linked, units joined directly phosphodiester-linked; [ ] holds rarer units or linkages, { } end groups; capitals alone tell only the bases. {ppp} = triphosphate; r = 2'-OH (RNA); f = 2'-fluoro

Tests used:
WM266-4 cells = assay type: cell-based
Experimental: (§1) For the intracellular delivery of immune stimulatory RNAs, RNAs were transfected with the DharmaFECT® Duo liposomal transfection reagent (Thermo Scientific, Waltham, Mass.) at a transfection reagent (μl):RNA (μg) ratio of 3.75:1, according to the manufacturer's instructions. Unless otherwise stated, for the induction of innate immune responses and apoptosis, immune stimulatory RNAs (500 ng/ml) were transfected into 50 to 70% confluent cells. Cells were incubated with an RNA-transfection agent complex for 5 h, followed by replenishment with fresh culture medium. To electroporate cells, 1×10^5 cells suspended in 200 μl Opti-MEM I (Invitrogen) were mixed with 1 μg of immune stimulatory RNAs or 5 μg of 2′Fluoro pyrimidine ribonucleoside triphosphate in 2-mm cuvettes and were electroporated at 300 V for 500 μs using an Electro Square Porator ECM 830 (BTX, San Diego, Calif.). For the knockdown of RNA-sensing PRRs, cells were transfected with PRR-specific siRNAs (25 nM) twice at 2-day intervals using DharmaFECT®-1 (Thermo Scientific). At 5 h after the second siRNA transfection, cells were harvested, replated into a 96-well plate and incubated overnight. Cells were then treated with immune stimulatory RNA transfections. Staurosporine (2 μM) (Sigma, St Louis, Mo.) and recombinant human IFNβ (20 ng/ml) (PeproTech, Rocky Hill, N.J.) were used as positive controls of anti-melanoma cytotoxicity. B18R (100 ng/ml) (eBioscience, San Diego, Calif.) was added directly to the growth media of cells to neutralize IFNβ.
Growth inhibition relative to untreated cells was quantified at 72 h after RNA transfection using an MTT Cell Proliferation Assay Kit (Cayman Chemicals, Ann Arbor, Mich.), according to the manufacturer's instructions. The percent growth inhibition was calculated by using the following equation: % growth inhibition=([O.D.]untreated−[O.D.]treated)/[O.D.]untreated×100. The induction of cell death was measured 48 h after RNA transfection by flow cytometry after staining with Annexin V-PE and 7-Aminoactinomycin D (7-AAD) using the PE Annexin V Apoptosis Detection Kit I (BD Biosciences, San Jose, Calif.) and analyzed using the CellQuest software (BD Biosciences).

IFNβ = IFNβ ELISA of transfected melanoma cell supernatants; assay type: cell-based, human
Experimental: as §1, with “2'Fluoro” for “2′Fluoro”, “B18R” left out, “IFNβ. Cells were transfected with RNAs as described above. At 24 hours after RNA transfection, culture supernatants were collected and stored at -80° C. for later analyses. The production of human IL-8 was analyzed with a human IL-8 ELISA kit (eBioscience). IFN-β production was determined with a human IFN-β ELISA kit (PBL Biomedical Laboratories, Piscataway, N.J.) by following the manufacturer's instructions.” for “IFNβ.”

B1: 10F: 5′ppp 2′F pyrimidine ssRNA aptamer, 71 nt, human melanocytic cell-targeting, SEQ ID NO: 4 (nucleic acid)
chain: {ppp}-rGrGrGrArGrGrAfCrGrAfUrGfCrGrGfUrAfCfCfUrGrAfCrArGfCrAfUfCfUfUrGrAfUrArAfUrGrGfUfCfCfUrAfCrGrGrArGfCfCrGfUfUfCfCrArGrAfCrGrAfCfUfCrGfCfCfCrGrA
WM266-4 cells; 5′ppp 10F variants, 72 h, MTT
  cytotoxicity, fold compared to unmodified 5′ppp RNAs: over 2 fold
WM266-4 cells; B18R 100 ng/ml, type I IFN decoy receptor
  cell death / apoptosis of melanoma cells on co-treatment with B18R: only partially rescued
WM266-4 cells; liposomal transfection, 72 h, MTT
  growth inhibition / cytotoxicity (anti-melanoma effect), in words: comparable to levels observed for the gold standard PRR-activating anti-cancer agent, polyI:C
IFNβ; 0.5 μg/ml, 24 h, ELISA
  IFNβ production, fold compared to unmodified 5′ppp RNAs: over 2 fold
IFNβ; aptamer treated with bacterial alkaline phosphatase (BAP), 0.125 μg/ml
  IFNβ production after dephosphorylation of the aptamer: partially prevented
IFNβ; liposomal transfection, ELISA
  IFNβ production / induction, in words: strong induction
